The record followed here is patent publication US20050004025A1.

For the experiment, the target named is recombinant human a7 nicotinic acetylcholine receptor expressed in Xenopus oocytes (human) (UniProt P36544). Nature of the experiment: cell-based or functional assay.
Chain of recombinant human a7 nicotinic acetylcholine receptor expressed in Xenopus oocytes (human) (P36544 23-502): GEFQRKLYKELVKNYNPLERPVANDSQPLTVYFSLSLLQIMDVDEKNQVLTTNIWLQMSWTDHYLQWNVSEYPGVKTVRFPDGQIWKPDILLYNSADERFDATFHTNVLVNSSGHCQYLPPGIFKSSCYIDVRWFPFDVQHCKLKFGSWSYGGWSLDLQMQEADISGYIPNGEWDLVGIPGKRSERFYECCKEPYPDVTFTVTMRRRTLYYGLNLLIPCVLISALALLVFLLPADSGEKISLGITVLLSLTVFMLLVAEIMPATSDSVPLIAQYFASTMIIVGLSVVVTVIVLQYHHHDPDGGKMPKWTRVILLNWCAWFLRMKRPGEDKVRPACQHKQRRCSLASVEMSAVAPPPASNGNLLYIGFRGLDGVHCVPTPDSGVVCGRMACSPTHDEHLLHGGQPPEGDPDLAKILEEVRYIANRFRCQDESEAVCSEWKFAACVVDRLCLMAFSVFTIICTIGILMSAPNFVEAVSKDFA

“recombinant SLURP-1 with C-terminal myc tag and His6 tag (highly purified SLURP-1) (from UniProt P55000 23-103) (ligand)”: the EC50 of acetylcholine on the receptor after 2.5 min exposure to 200 pM SLURP-1 (FIG. 5C; control 178 µM; n=6 for each data point) turned out to be 68 µM; the EC50 of acetylcholine on the receptor after SLURP-1 treatment (FIG. 5B; control 175 µM) is 68 µM; the increase of the amplitude of acetylcholine-evoked macroscopic currents at 200 pM SLURP-1, compared with control (two-electrode voltage clamp, oocytes; n=6) is 421%; the increase of the amplitude of acetylcholine-evoked macroscopic currents at 20 nM SLURP-1, compared with control (two-electrode voltage clamp, oocytes; n=4) stood at 1210%.
